Data from patent US20140322162A1.

Experiments:
[1] = target: H-ferritin binding sites (receptor) on bovine retinal endothelial cell (BREC) homogenate (bovine); assay: saturation binding of 125I-rH-ferritin to BREC homogenate, global non-linear one-site fit
[2] = target: H-ferritin binding sites (receptor) on rat brain microvessels (rat); assay: saturation binding of 125I-rH-ferritin to rat brain microvessels, global non-linear one-site fit

recombinant human H-ferritin (from UniProt P02794 1-183) (ligand)
Bmax (fmol/mg protein) [1]: 466 | Kd [1]: 2.7 nM | Bmax (fmol/mg protein) [2]: 573 | Kd [2]: 7.9 nM
